Measurements from patent publication US20240116985A1 (published 2024).
Starred links: 1 amine or outer side, 2 acyl side, 3 side chain; linkers in the order of their positions; H or OH if unused. Positions of bridges follow the written chain, without caps; N, C: chain ends. Non-standard residues stand in square brackets, D forms with d. Primed or numbered codes have the meaning given here. PyrS2″ = (S)-3-amino-1-((pent-4-en-1-yloxy)carbonyl)pyrrolidine-3-carboxylic acid (stapling residue), C=CCCCOC(=O)N1CC[C@@](N[*:1])(C(=O)[*:2])C1; B5(5) = 2,2-bis(4-pentenyl)glycine, 2-amino-2-(pent-4-en-1-yl)hept-6-enoic acid (stitching residue), C=CCCCC(CCCC=C)(N[*:1])C(=O)[*:2]; MePpzAsn = (S)-2-amino-4-(4-methylpiperazin-1-yl)-4-oxobutanoic acid, CN1CCN(C(=O)C[C@H](N[*:1])C(=O)[*:2])CC1; B5(3) = 2,2-bis(4-pentenyl)glycine (stitching residue), C=CCCCC(CCCC=C)(N[*:1])C(=O)[*:2]; Phe(3-COOH) = N[C@@H](Cc1cccc(C(=O)O)c1)C(=O)O; 2F3MeF = Cc1cccc(C[C@H](N[*:1])C(=O)[*:2])c1F; Bta = N[C@@H](Cc1csc2ccccc12)C(=O)O; αAllylPro = C=CC[C@@]1(C(=O)O)CCCN1; tBuAla = CC(C)(C)C[C@H](N)C(=O)O; 3Thi = N[C@@H](Cc1ccsc1)C(=O)O; S8 = C=CCCCCCC[C@](C)(N)C(=O)O

Tests used:
Test in all cases: cell-based or functional assay
[1] = molecular target: T1, beta-catenin (endogenous, DLD1 TCF/LEF luciferase reporter cells) (UniProt P35222 1-781)
T1 sequence (looked up): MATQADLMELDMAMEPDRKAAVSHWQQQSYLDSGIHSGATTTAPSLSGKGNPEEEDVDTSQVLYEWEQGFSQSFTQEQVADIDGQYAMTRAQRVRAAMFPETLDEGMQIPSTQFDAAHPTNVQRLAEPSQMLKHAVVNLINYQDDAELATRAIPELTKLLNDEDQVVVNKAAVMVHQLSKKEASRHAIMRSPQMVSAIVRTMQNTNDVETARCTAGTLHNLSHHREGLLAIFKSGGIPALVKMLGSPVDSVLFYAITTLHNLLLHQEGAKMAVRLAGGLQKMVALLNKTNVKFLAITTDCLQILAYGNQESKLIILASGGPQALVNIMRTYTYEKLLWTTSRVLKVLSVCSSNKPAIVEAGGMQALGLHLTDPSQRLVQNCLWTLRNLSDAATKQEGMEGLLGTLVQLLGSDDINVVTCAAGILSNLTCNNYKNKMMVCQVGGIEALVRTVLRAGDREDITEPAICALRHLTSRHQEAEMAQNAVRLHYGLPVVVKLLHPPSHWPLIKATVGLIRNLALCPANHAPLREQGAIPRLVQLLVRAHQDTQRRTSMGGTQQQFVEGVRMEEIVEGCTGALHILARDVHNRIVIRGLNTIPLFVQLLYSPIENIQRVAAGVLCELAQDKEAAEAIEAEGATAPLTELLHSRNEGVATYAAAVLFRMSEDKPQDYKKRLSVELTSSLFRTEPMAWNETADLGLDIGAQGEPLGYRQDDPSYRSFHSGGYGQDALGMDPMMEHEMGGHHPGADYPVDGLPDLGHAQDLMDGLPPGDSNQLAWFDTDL

[2] = molecular target: T2, B-cat-Halo (UniProt P35222 1-781)
T2 sequence (looked up): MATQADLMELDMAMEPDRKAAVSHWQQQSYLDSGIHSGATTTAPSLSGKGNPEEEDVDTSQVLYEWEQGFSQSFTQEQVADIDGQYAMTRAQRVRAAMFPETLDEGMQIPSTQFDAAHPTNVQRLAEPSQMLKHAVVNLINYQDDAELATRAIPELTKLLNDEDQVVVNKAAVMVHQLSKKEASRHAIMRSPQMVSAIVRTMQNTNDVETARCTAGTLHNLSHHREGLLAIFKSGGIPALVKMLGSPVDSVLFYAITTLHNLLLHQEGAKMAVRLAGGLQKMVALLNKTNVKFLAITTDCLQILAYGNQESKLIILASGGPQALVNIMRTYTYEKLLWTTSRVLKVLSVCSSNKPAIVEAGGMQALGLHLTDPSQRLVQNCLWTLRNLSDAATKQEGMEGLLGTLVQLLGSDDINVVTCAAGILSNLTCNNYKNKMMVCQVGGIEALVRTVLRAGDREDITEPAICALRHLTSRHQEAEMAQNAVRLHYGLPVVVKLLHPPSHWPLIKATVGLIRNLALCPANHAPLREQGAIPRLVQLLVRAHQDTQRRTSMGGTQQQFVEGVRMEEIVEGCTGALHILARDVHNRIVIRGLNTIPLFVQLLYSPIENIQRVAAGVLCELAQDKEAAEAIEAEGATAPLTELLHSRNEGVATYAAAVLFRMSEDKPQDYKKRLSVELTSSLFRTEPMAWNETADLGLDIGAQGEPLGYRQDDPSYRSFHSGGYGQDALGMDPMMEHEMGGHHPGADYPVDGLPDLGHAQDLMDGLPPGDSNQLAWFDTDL

[3] = molecular target: B-cat-Halo (UniProt P35222 1-781); remark: listed apart in the source

Ac-[αAllylPro]D[tBuAla][B5(3)]D[Phe(3-COOH)]AAFL[PyrS2″][2F3MeF][Bta][MePpzAsn]-NH2 (staple 1-4, 4-11) [I-1612]
DLD1 4% Abs IC50 [1]: 4 µM | NanoBRET Abs IC50 [2]: 5.3 µM

Ac-[αAllylPro]D[tBuAla][B5(5)]DDAAFN[S8][3Thi][Bta]Q-NH2 (staple 1-4, 4-11) [I-679]
NanoBRET % inh @ 10 uM [3]: 44.8%
